In the experiment the target is T1, carcinoembryonic antigen (CEA) (human, UniProt P06731 35-685).
T1 construct: whole, on cells; also called CEACAM5; Carcinoembryonic antigen-related cell adhesion molecule 5
T1 sequence (looked up): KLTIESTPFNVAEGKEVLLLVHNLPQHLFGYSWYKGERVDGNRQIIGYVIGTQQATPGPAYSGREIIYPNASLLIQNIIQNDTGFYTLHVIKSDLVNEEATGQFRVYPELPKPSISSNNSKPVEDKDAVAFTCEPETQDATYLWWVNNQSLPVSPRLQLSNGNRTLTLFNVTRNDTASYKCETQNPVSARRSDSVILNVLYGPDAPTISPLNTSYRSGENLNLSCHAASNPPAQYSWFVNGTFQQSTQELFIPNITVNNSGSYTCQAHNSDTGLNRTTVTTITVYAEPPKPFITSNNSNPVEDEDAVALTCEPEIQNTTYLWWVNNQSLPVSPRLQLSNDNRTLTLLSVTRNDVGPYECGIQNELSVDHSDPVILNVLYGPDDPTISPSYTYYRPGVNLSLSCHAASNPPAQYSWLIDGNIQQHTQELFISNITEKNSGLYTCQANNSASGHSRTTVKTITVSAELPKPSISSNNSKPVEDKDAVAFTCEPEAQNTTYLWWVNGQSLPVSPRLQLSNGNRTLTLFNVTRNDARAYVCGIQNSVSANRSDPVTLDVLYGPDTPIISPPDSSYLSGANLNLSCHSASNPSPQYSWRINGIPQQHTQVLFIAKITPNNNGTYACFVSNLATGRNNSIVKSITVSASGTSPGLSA
Description: FACS on MKN-45 cells, detection with anti-huIgG(H+L)-Alexa488. The protocol:
MKN-45 cells were detached from the culture bottle using Trypsin and were counted using a Casy cell counter. After pelleting at 4° C., 300 g the cells were resuspended in FACS Buffer (2.5% FCS in PBS), adjusted to 2.0E+06 cells/mL dispensed to 96-well PP V-bottom-Platte (25 μL/well=5.0E+04Zellen/well).
The CEA specific SPLIT antibodies (P1AF0712 or P1AF0713 respectively) were adjusted to 40 μg/mL in FACS buffer, resulting in a final concentration of 10 μg/mL. Both antibodies were added to the cells either separated followed by buffer or combined and incubated at 4° C. for 1 h. The cells were then washed twice in FACS buffer. After washing, the cells were resuspended in 50 μL FACS-buffer containing secondary antibody (<huIgG(H+L)>-Alexa488, c=10 μg/mL) and incubated 1h at 4° C. The cells were then washed twice in FACS buffer and resuspended in 70 μl/well FACS buffer for measurement using a FACS Canto (BD, Pharmingen).

The values below come from US20240173442A1 (Hoffmann-La Roche, published 2024).

As usually defined, the EC50 is the concentration needed to bring the measured effect to its halfway point. Lower therefore signals a more potent agent.

B1: P1AF0712 (CEA-split-DOTA-VL, CH1A1A) (antibody, human IgG1, kappa, L234A L235A)
heavy 1: not shown
heavy 2: QVQLVQSGAEVKKPGASVKVSCKASGYTFTEFGMNWVRQAPGQGLEWMGWINTKTGEATYVEEFKGRVTFTTDTSTSTAYMELRSLRSDDTAVYYCARWDFAYYVEAMDYWGQGTTVTVSSASTKGPSVFPLAPSSKSTSGGTAALGCLVKDYFPEPVTVSWNSGALTSGVHTFPAVLQSSGLYSLSSVVTVPSSSLGTQTYICNVNHKPSNTKVDKKVEPKSCDKTHTCPPCPAPEAAGGPSVFLFPPKPKDTLMISRTPEVTCVVVDVSHEDPEVKFNWYVDGVEVHNAKTKPREEQYNSTYRVVSVLTVLHQDWLNGKEYKCKVSNKALGAPIEKTISKAKGQPREPQVCTLPPSRDELTKNQVSLSCAVKGFYPSDIAVEWESNGQPENNYKTTPPVLDSDGSFFLVSKLTVDKSRWQQGNVFSCSVMHEALHNHYTQKSLSLSPGGGGGSGGGGSGGGGSGGGGSQAVVIQESALTTPPGETVTLTCGSSTGAVTASNYANWVQEKPDHLFTGLIGGHNNRPPGVPARFSGSLIGDKAALTIAGTQTEDEAIYFCALWYSDHWVIGGGTKLTVL
light: DIQMTQSPSSLSASVGDRVTITCKASAAVGTYVAWYQQKPGKAPKLLIYSASYRKRGVPSRFSGSGSGTDFTLTISSLQPEDFATYYCHQYYTYPLFTFGQGTKLEIKRTVAAPSVFIFPPSDEQLKSGTASVVCLLNNFYPREAKVQWKVDNALQSGNSQESVTEQDSKDSTYSLSSTLTLSKADYEKHKVYACEVTHQGLSSPVTKSFNRGEC
notes: also called CEA specific SPLIT antibody; P6_A
With B1, the 50% effective concentration (EC50) was determined as 2.7 µg/mL.

B2: P1AF0713 (CEA-split-DOTA-VH-AST, CH1A1A) (antibody, human IgG1, kappa, L234A L235A)
heavy 1: QVQLVQSGAEVKKPGASVKVSCKASGYTFTEFGMNWVRQAPGQGLEWMGWINTKTGEATYVEEFKGRVTFTTDTSTSTAYMELRSLRSDDTAVYYCARWDFAYYVEAMDYWGQGTTVTVSSASTKGPSVFPLAPSSKSTSGGTAALGCLVKDYFPEPVTVSWNSGALTSGVHTFPAVLQSSGLYSLSSVVTVPSSSLGTQTYICNVNHKPSNTKVDKKVEPKSCDKTHTCPPCPAPEAAGGPSVFLFPPKPKDTLMISRTPEVTCVVVDVSHEDPEVKFNWYVDGVEVHNAKTKPREEQYNSTYRVVSVLTVLHQDWLNGKEYKCKVSNKALGAPIEKTISKAKGQPREPQVCTLPPSRDELTKNQVSLSCAVKGFYPSDIAVEWESNGQPENNYKTTPPVLDSDGSFFLVSKLTVDKSRWQQGNVFSCSVMHEALHNHYTQKSLSLSPG
heavy 2: not shown
light: DIQMTQSPSSLSASVGDRVTITCKASAAVGTYVAWYQQKPGKAPKLLIYSASYRKRGVPSRFSGSGSGTDFTLTISSLQPEDFATYYCHQYYTYPLFTFGQGTKLEIKRTVAAPSVFIFPPSDEQLKSGTASVVCLLNNFYPREAKVQWKVDNALQSGNSQESVTEQDSKDSTYSLSSTLTLSKADYEKHKVYACEVTHQGLSSPVTKSFNRGEC
notes: also called CEA specific SPLIT antibody; P6_B
B2 registered an EC50 of 2.3 µg/mL. The EC50 values of the last two molecules are within 1.5-fold of each other.
